B1: SCNN1D (parent)
chain: FYRLYQDLETHRLPCTSRCPRPCR
B2: RTN2 (parent)
chain: SERPLEDLRLRLDHLGWVARGTGS

Variants of: B1
Assay: protein stability index of a GFP-peptide fusion (GPS, HEK-293T) (PSI 1-6); higher = more stable
Conditions: c terminus: a fixed tail appended
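Note: lentivirally expressed fusions sorted by FACS into six bins by GFP to DsRed ratio, PSI derived from sequencing read proportions per bin multiplied by bin number.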

Protein stability index, by site and new letter:
R21: Q 3.16, M 1.25, G 2.71, D 1.83, P 2.26, H 3.38, T 2.1, S 1.88, F 1.96, V 1.63, W 2.46, N 1.68, Y 2.71, L 2.21, E 2.22
P20: K 2.57, R 2.07, E 1.32, G 1.95, T 2.88, Y 1.44, C 2.51, H 2.18, A 1.98, S 1.83, F 2.83, N 2.13, L 2.27, I 2.22, D 1.81
P22: W 1.13, V 1.8, Y 1.32, H 2.38, T 2.25, I 1.72, E 2.27, N 2.72, C 3.11, G 2.15, Q 2.5, M 1.5, F 1.8, S 2.33, R 2.39, K 2.18
R24: F 1.75, C 1.77, Q 2.57, A 2.2, M 2.8, K 2.65, I 1.65, E 2.14, W 1.3, N 1.61, D 1.6, Y 1.67, L 1.6, P 2.35, T 3.87, S 2.13, H 1.69
C23: M 2.41, Y 2.33, V 1.85, P 2.43, G 2.65, T 2.37, H 2.17, S 2.67, I 2.11, F 1.71, A 2.23, D 3.36, Q 2.42, E 2.43, N 1.91

Variants of: B2
Assay: as above
Conditions: c terminus: a fixed tail appended

Protein stability index of substitutions, site by site:
R3: L 2.49, A 3.86, Y 1.86, D 2.82, P 3.56, N 2.48, C 2.4, K 1.63, M 2.99, G 2.19, W 1.62, Q 2, F 2.18, H 2.76, S 2.07
E2: H 2.19, I 2.12, F 2.9, N 1.68, S 2.43, A 1.99, G 2.28, Y 2.68, L 1.42
D7: R 1.79, N 1.99, Q 1.43, V 1.9, G 1.96, T 1.88, H 1.87, M 1.02, W 1.29, A 1.94
L8: F 1.96, A 2.73, K 2.83, N 2.13, I 2.44, E 3.52, D 2.32, H 2.16
L5: M 2.46, W 1.97, S 2, Y 2.53, F 3.45, T 2.38, I 2.52, P 2.07, N 1.48, V 4.48, G 2.33, D 3.44
P4: L 1.94, W 1.73, Q 2.95, D 2.53, R 1.59, V 1.26, E 2.61, K 2.38, F 3.68
E6: P 2.15, T 1.29, N 2.24, C 2.72, V 2.63, S 1.93, D 1.68, K 1.53, G 2.35, A 2.27, W 1.62, M 2.29, H 2.34, F 2.78, Q 2.49, I 1.71
S1: W 2.46, G 2.87, I 3.02, P 2.66, N 2.57, C 1.88, M 2.73, L 1.76, K 2.61, E 2.74
